From patent US20240026383A1 (priority 2020, published 2024)
Where “and” joins values, the source holds several entries; their conditions need not be identical. Equal entries are not always repeated. Where two headings read alike, the source gives them in different places.

What was measured:
[1] = test system: lacZ gene from E. coli interrupted with the T4 td intron; assay: LacZ colorimetric (β-galactosidase) assay of T4 td intron exon variants; type: cell-based
From the text: To investigate the effect of the flanking regions of the T4 td intron on its splicing efficiency and on the expression of the target gene, a series of constructs were made containing the lacZ gene from E. coli with the intron in between amino acids D6 and S7 (see FIG. 5). These amino acids were identified because insertion at this location would be least likely to impact on the structure of the protein. The lacZ gene was used because its functional expression can be easily monitored by a colorimetric assay and because of its high tolerance for modification at the 5′ end. LacZa is interrupted with the T4 td intron and therefore non-functional. Upon self-splicing and excision of the intron, the ORF of LacZa is complete and functional. LacZa encodes for β-galactosidase which is able to hydrolyse ortho-nitrophenyl-β-D-galactopyranoside (ONPG) into β-D-galactose and ortho-nitrophenol (ONP). ONP can be measured through colorimetric assays. Mutations were made by PCR in the 5′ flank as depicted in Table 1.
All position numbers are relative to the 5′ splice site. […] Since there is the possibility of base pairing, the effect of disallowing base pairing was assessed. If there is no interaction between position −7 and the Internal Guide Sequence (IGS), (the sequence at P1 that forms the base pairing with the 5′ exon sequence), and no difference in LacZ activity should be observed. The −7 position was mutated (while all other nucleotides remained WT) to form either a wobble pair or a mismatch. The self-splicing activity of the three intron variants for β-galactosidase activity was assessed after overnight growth.
This is similar to the situation with the −7 position. Therefore, point mutations at the +296 position of the T4 td intron were made to see if they might impact on the splicing activity of the intron. The WT +296 position (mismatch) was mutated by PCR (Table 2) to form either a pair or a wobble pair with the P1 loop. All mutants were assayed for β-galactosidase activity after overnight growth.
This investigated the effect of altering positions −4 to −6 in all possible combinations of pair (P), mismatch (M) and wobble pair (W) (if applicable) whilst preserving all the other bases as WT. With reference to FIGS. 1 and 4A, positions −4 to −6 is GUU (positions −6 to −4 are UUG) and these pair or interact with UGA at positions +12 to +14, respectively.
In FIG. 8 the wild type intron (*) is (sequences shown from 5′ to 3′) PWM/(UUG) and set to 1. All other LacZ activities are a fraction of the wild type activity. PMP reads either UAA or UGA both being stop codons (**). […] A wobble base pair at position −5 negates to a large extent the effect that −6 and −4 have on the splicing. […]

LacZa of E. coli MG1655 = assay: FnCas12a targeting assay with Tagged-T4 td intron variants (CFU drop plating); type: cell-based; conditions: T crRNA (LacZ), selection medium with 2 mM theophylline
From the text: Four different intron variants (as shown previously in FIG. 8), referred to as “Tag1”, “Tag2”, etc. (Tag1: −4P, −5P, −6P; Tag2: −4W, […] −4W, −5W, −6P; Tag4: −4M, −5P, −6P) are inserted directly after the start codon of the GOI (FnCas12a gene). The 5′ exon sequences of the four different tags are indicated: Tag1: TCCtcaGGT (SEQ ID NO: 7); Tag2: TCCtcgGGT (SEQ ID NO: 8); Tag3: TCCttgGGT (SEQ ID NO: 9); Tag4: TCCtctGGT (SEQ ID NO: 10). The 3′ exon sequence is conserved amongst the 4 different tags and indicated as CTA (SEQ ID NO: 12). The amino acids corresponding to the Tag sequences are indicated with capital bold letters above the Tagged-introns. Intron-less (wild-type) FnCas12a was used as a reference for comparison. Efficiency of targeting of the different Tagged-T4 td intron variants was assessed by using either a LacZa targeting (T) or a non-targeting (NT) crRNA and by comparing the amount of colony forming units (CFUs) of transformed E. coli MG1655 per μg of plasmid used (CFUs μg^−1). CFU was determined by the number of colonies observed.
Electrocompetent E. coli MG1655 were transformed (2.5 kV, 200 Ω, 25 μF) with 10 ng μL^−1 of the respective plasmid and recovered for 1 hour in 500 μL LB medium [10 g L^−1 tryptone (Oxoid), 5 g L^−1 yeast extract (BD), 10 g L^−1 NaCl (Acros)] at 37° C. Then, the recovered culture was serially diluted and drop plated on selective (50 μg mL^−1 kanamycin) LB agar plates in the presence or absence of 2 mM theophylline. The agar plates were incubated at 30° C. for 24 hours and the CFUs were counted.
E. coli MG1655 was transformed with a series of plasmids (listed in Table 4) and serially diluted and drop plated on selective (kanamycin) LB media with or without 2 mM theophylline. […] The effect of the CFU reduction was more apparent for the Tag4-intron where colonies could only be observed at the 10° dilution, followed by Tag3-intron (10^−1) then Tag2-intron (10^−2) and finally Tag1-intron ([…]).

[2] = test system: LacZ gene of E. coli MG1655; assay: SIBR-Cas genome editing (HR and CRISPR-Cas counterselection) of LacZ; type: cell-based; conditions: for unbiased editing efficiency (LacZ deletion by PCR of randomly selected colonies): X-gal omitted from the medium; for editing efficiency: percentage of white colonies from total CFUs mL-1: blue/white screening, LacZ targeting, induced after 1 hour recovery
From the text: For efficient genome editing in bacteria, HR should precede CRISPR-Cas counterselection. To assess whether tight control over CRISPR-Cas targeting could bolster the efficiency of CRISPR-Cas mediated genome editing by allowing more time for HR to occur, we used SIBR-Cas and targeted the LacZ gene of E. coli MG1655 for knock-out through HR and CRISPR-Cas counterselection using a blue/white screening colony assay. To facilitate HR, we added 500 bp up- and down-stream homology arms to the plasmids expressing the four SIBR-Cas (Int1-4) and WT-FnCas12a variants that target the LacZ gene. After 1 hour recovery, we induced the expression of the SIBR-Cas variants to counterselect the WT from the mutant colonies.
Since disruption of LacZ can also be achieved through non-HR mediated approaches (spontaneous mutations or occasional error-prone DNA repair following DNA cleavage by Cas12a), not all gene deletions can be screened phenotypically. Therefore, we repeated our experiment, but X-gal was omitted from the medium to eliminate the possibility of false-positives. Randomly selected colonies that were obtained were screened by PCR for LacZ deletion showing a 0%, 0%, 29% and 38% editing efficiency for Int1, Int2, Int3 and Int4 SIBR-Cas variants, respectively (FIG. 24C). […] The observed decrease in editing efficiency (compared to the blue/white screening) might be attributed to spontaneous LacZ mutations that escape CRISPR-Cas counterselection. Nevertheless, a high editing efficiency (38%) was observed when SIBR-Cas Int4 was used without the use of recombinases or any other complex systems.

FlgM gene of P. putida = assay: Knock-out of the FlgM gene by homologous recombination with tagged-intron-FnCas12a; type: cell-based, Pseudomonas putida; conditions: T crRNA, 2 mM theophylline
Experimental: Further genome editing experiments were conducted to knock-out the FlgM gene of P. putida. A repair template (1125 bp) was included on the plasmids bearing approximately 500 bp homologous sides upstream and downstream of the FlgM gene. The repair template was introduced to either of the four tagged-intron-FnCas12a variants along with the T crRNA for counterselection or the NT crRNA as a control. Plasmids were transformed to P. putida through electroporation and the transformed cells were recovered in LB medium for 2 hours before plating on LB agar plates containing 50 μg ml^−1 kanamycin and 2 mM theophylline. Plates were incubated at 30° C. overnight and formed colonies were screened through colony PCR for the knock-out of the FlgM gene. […] Tag1 to Tag4 represent the four different Tagged-intron variant plasmids which contain the T (targeting) or the NT (non-targeting) crRNA. […] On the contrary, transformants bearing plasmids with an NT crRNA were all WT.

Molecule | self-splicing activity ranking of the Tag/Int variants [1] | self-splicing activity ranking of the Tag/Int variants ([1]; listed as Int1) | dilution at which colonies could be observed (LacZa of E. coli MG1655) | unbiased editing efficiency (LacZ deletion by PCR of randomly selected colonies) [2] | editing efficiency: percentage of white colonies from total CFUs mL-1 [2] | editing efficiency (FlgM knock-out by colony PCR) (FlgM gene of P. putida) | self-splicing activity ranking of the Tag/Int variants ([1]; listed as Int4) | unbiased editing efficiency (LacZ deletion by PCR of randomly selected colonies) ([2]; listed as Int4) | editing efficiency: percentage of white colonies from total CFUs mL-1 ([2]; listed as Int4) | unbiased editing efficiency (LacZ deletion by PCR of randomly selected colonies) ([2]; listed as Int3) | editing efficiency: percentage of white colonies from total CFUs mL-1 ([2]; listed as Int3) | editing efficiency: percentage of white colonies from total CFUs mL-1 ([2]; listed as Int2)
Tag1: theophylline dependent T4 td intron after ATG of FnCas12a; −4P, −5P, −6P; 5′ exon TCCtcaGGT; SEQ ID NO: 49 (nucleic acid, Tag1 T4 td intron with the theophylline aptamer) DNA: TCCTCAGGTTAATTGAGGCCTGAGTATAAGGTGACTTATACTTGTAATCTATCTAAACGGGGAACCTCTCTAGTAGACAATCCCGTGCTAAATTGATACCAGCATCGTCTTGATGCCCTTGGCAGCATAAATGCCTAACGACTATCCCTTTGGGGAGTAGGGTCAAGTGACTCGAAACGATAGACAACTTGCTTTAACAAGTTGGAGATATAGTCTGCTCTGCATGGTGACATGCAGCTGGATATAATTCCGGGGTAAGATTAACGACCTTATCTGAACATAATGCTA | most “tight” | worst | 10^−2 | 0% | 0% | 0% |  |  |  |  |  | 
Tag4: theophylline dependent T4 td intron tag; −4M, −5P, −6P; 5′ exon TCCtctGGT; SEQ ID NO: 48 (nucleic acid, Tag4 T4 td intron with the theophylline aptamer) DNA: TCCTCTGGTTAATTGAGGCCTGAGTATAAGGTGACTTATACTTGTAATCTATCTAAACGGGGAACCTCTCTAGTAGACAATCCCGTGCTAAATTGATACCAGCATCGTCTTGATGCCCTTGGCAGCATAAATGCCTAACGACTATCCCTTTGGGGAGTAGGGTCAAGTGACTCGAAACGATAGACAACTTGCTTTAACAAGTTGGAGATATAGTCTGCTCTGCATGGTGACATGCAGCTGGATATAATTCCGGGGTAAGATTAACGACCTTATCTGAACATAATGCTA | most “loose” |  | 10° |  |  |  | best splicer | 38%±6.41% and 38% | 80%±5.57% and 80% |  |  | 
Tag3: theophylline dependent T4 td intron tag; −4W, −5W, −6P; 5′ exon TCCttgGGT; SEQ ID NO: 47 (nucleic acid, Tag3 T4 td intron with the theophylline aptamer) DNA: TCCTTGGGTTAATTGAGGCCTGAGTATAAGGTGACTTATACTTGTAATCTATCTAAACGGGGAACCTCTCTAGTAGACAATCCCGTGCTAAATTGATACCAGCATCGTCTTGATGCCCTTGGCAGCATAAATGCCTAACGACTATCCCTTTGGGGAGTAGGGTCAAGTGACTCGAAACGATAGACAACTTGCTTTAACAAGTTGGAGATATAGTCTGCTCTGCATGGTGACATGCAGCTGGATATAATTCCGGGGTAAGATTAACGACCTTATCTGAACATAATGCTA |  |  | 10^−1 |  |  | 36.6% |  |  |  | 29%±18.04% and 29% | 49%±8.75% and 49% | 
Tag2: theophylline dependent T4 td intron tag; −4W, −5P, −6P; 5′ exon TCCtcgGGT; SEQ ID NO: 46 (nucleic acid, Tag2 T4 td intron with the theophylline aptamer) DNA: TCCTCAGGTTAATTGAGGCCTGAGTATAAGGTGACTTATACTTGTAATCTATCTAAACGGGGAACCTCTCTAGTAGACAATCCCGTGCTAAATTGATACCAGCATCGTCTTGATGCCCTTGGCAGCATAAATGCCTAACGACTATCCCTTTGGGGAGTAGGGTCAAGTGACTCGAAACGATAGACAACTTGCTTTAACAAGTTGGAGATATAGTCTGCTCTGCATGGTGACATGCAGCTGGATATAATTCCGGGGTAAGATTAACGACCTTATCTGAACATAATGCTA |  |  | 10^−2 | 0% |  | 39.3% |  |  |  |  |  | 1%±0.35% and 1%
